From article PMC2756588

T1: Sla1-2, P32790
T1 sequence (P32790 60-140, looked up): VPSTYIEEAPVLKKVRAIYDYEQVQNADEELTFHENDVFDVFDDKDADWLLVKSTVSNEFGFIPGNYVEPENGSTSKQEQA

T2: Sla1-3, P32790
T2 sequence (P32790 344-424, looked up): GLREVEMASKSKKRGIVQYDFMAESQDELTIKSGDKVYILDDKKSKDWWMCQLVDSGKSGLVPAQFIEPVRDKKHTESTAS

T3: Myo5, Q04439
T3 sequence (Q04439 1072-1160, looked up): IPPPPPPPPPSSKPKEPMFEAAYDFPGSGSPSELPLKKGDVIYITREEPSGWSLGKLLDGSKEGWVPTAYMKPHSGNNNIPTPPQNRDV

T4: Pex13, P80667
T4 sequence (P80667 295-386, looked up): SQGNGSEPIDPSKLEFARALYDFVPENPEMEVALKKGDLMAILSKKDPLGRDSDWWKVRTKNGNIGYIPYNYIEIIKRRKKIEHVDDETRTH

T5: Cdc25, P04821
T5 sequence (P04821 50-136, looked up): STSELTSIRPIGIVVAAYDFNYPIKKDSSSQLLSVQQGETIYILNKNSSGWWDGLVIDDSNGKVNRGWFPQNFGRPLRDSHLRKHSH

T6: Bzz1-2, P38822
T6 sequence (P38822 568-633, looked up): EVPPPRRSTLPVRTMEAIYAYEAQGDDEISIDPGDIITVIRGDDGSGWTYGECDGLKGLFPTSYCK

T7: Cyk3, Q07533
T7 sequence (Q07533 1-83, looked up): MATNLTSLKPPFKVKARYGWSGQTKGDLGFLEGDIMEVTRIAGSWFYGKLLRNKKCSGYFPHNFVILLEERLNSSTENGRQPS

T8: Hof1, Q05080
T8 sequence (Q05080 590-669, looked up): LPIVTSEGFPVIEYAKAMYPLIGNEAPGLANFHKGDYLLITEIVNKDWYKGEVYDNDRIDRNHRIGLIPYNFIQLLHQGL

T9: Bzz1-1, P38822
T9 sequence (P38822 478-572, looked up): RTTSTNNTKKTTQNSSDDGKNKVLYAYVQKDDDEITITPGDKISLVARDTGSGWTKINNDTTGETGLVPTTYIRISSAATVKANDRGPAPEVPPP

T10: Boi1, P38041
T10 sequence (P38041 1-86, looked up): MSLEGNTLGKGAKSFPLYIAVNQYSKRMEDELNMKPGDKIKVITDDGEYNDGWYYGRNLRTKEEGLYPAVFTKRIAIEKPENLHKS

T11: Lsb3, P43603
T11 sequence (P43603 385-451, looked up): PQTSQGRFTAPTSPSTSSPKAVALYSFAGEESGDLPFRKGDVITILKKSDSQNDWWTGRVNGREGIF

T12: Hse1, P38753
T12 sequence (P38753 208-285, looked up): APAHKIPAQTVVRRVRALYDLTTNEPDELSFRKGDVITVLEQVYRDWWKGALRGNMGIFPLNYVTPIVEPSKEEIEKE

T13: Bbc1, P47068
T13 sequence (P47068 1-78, looked up): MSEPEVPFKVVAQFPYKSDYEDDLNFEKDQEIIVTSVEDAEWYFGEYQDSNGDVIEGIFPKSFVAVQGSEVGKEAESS

T14: Pin3, Q06449
T14 sequence (Q06449 53-122, looked up): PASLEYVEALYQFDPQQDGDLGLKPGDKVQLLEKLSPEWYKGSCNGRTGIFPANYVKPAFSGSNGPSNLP

T15: Fus1, P11710
T15 sequence (P11710 432-512, looked up): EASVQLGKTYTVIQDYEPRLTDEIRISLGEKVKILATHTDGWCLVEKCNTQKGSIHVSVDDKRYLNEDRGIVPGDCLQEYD

T16: Abp1, P15891
T16 sequence (P15891 535-592, looked up): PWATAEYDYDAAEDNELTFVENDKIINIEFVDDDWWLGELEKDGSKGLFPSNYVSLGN

T17: Nbp2, Q12163
T17 sequence (Q12163 103-180, looked up): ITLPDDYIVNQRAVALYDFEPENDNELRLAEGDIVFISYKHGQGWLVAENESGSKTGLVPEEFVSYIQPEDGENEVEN

T18: Lsb1, P53281
T18 sequence (P53281 45-122, looked up): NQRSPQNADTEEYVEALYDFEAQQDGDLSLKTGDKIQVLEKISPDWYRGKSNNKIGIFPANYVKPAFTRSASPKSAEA

T19: Boi2, P39969
T19 sequence (P39969 32-116, looked up): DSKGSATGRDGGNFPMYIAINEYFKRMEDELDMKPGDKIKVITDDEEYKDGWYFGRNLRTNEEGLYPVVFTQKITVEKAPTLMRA

T20: Bud14, P27637
T20 sequence (P27637 247-328, looked up): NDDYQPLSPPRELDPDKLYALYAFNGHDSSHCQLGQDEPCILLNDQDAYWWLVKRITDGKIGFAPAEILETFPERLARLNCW

T21: Lsb4, P32793
T21 sequence (P32793 402-468, looked up): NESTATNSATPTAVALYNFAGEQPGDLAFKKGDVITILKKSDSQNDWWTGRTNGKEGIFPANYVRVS

B1: unnamed (peptide)
chain: TPRLSLPRLPNKHHW
B2: unnamed (peptide)
chain: VPKEPAPAPPPEPDM
B3: unnamed (peptide)
chain: DHPKGPPPPPPPDEK
B4: unnamed (peptide)
chain: GDHPKGPPPPPPPDE

Key:
Test in all cases: SPOT array
Myo3, P36006 = conditions: median of control spots 468
Sla1-2, P32790 = biological target: T1, Sla1-2, P32790; conditions: median of control spots 712
Sla1-3, P32790 = biological target: T2, Sla1-3, P32790; conditions: median of control spots 5475
Myo5, Q04439 = biological target: T3, Myo5, Q04439; conditions: median of control spots 471
Pex13, P80667 = biological target: T4, Pex13, P80667; conditions: median of control spots 1341
Cdc25, P04821 = biological target: T5, Cdc25, P04821; conditions: median of control spots 969
GST = conditions: median of control spots 978
Bzz1-2, P38822 = biological target: T6, Bzz1-2, P38822; conditions: median of control spots 4538
Cyk3, Q07533 = biological target: T7, Cyk3, Q07533; conditions: median of control spots 1451
Hof1, Q05080 = biological target: T8, Hof1, Q05080; conditions: median of control spots 4086
Bzz1-1, P38822 = biological target: T9, Bzz1-1, P38822; conditions: median of control spots 4446
Boi1, P38041 = biological target: T10, Boi1, P38041; conditions: median of control spots 1162
Lsb3, P43603 = biological target: T11, Lsb3, P43603; conditions: median of control spots 406
Hse1, P38753 = biological target: T12, Hse1, P38753; conditions: median of control spots 1727
Bbc1, P47068 = biological target: T13, Bbc1, P47068; conditions: median of control spots 796
Rvs167, P39743 = conditions: median of control spots 2707
Bem1-2, P29366 = conditions: median of control spots 4347
Pin3, Q06449 = biological target: T14, Pin3, Q06449; conditions: median of control spots 2171
Fus1, P11710 = biological target: T15, Fus1, P11710; conditions: median of control spots 1200
Bem1-1, P29366 = conditions: median of control spots 4282
Abp1, P15891 = biological target: T16, Abp1, P15891; conditions: median of control spots 935
Nbp2, Q12163 = biological target: T17, Nbp2, Q12163; conditions: median of control spots 357
Sho1, P40073 = conditions: median of control spots 1148
Lsb1, P53281 = biological target: T18, Lsb1, P53281; conditions: median of control spots 388
Boi2, P39969 = biological target: T19, Boi2, P39969; conditions: median of control spots 1161
Bud14, P27637 = biological target: T20, Bud14, P27637; conditions: median of control spots 956
Lsb4, P32793 = biological target: T21, Lsb4, P32793; conditions: median of control spots 397

Chain of Sho1, P40073 (P40073 287-367): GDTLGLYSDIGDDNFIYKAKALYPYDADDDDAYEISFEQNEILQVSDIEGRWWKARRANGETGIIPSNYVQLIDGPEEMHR
Chain of Rvs167, P39743 (P39743 419-482): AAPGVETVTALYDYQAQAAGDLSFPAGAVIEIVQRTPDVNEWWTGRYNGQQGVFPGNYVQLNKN
Chain of Bem1-1, P29366 (P29366 55-141): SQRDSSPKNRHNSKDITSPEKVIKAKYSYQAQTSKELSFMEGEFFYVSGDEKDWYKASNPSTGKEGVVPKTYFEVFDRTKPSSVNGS
Chain of Bem1-2, P29366 (P29366 139-227): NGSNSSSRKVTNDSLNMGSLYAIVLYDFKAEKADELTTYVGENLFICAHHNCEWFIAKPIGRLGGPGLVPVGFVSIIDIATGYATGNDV

Row | Binder | SPOT intensity (Myo3, P36006) | SPOT intensity (Sla1-2, P32790) | SPOT intensity (Sla1-3, P32790) | SPOT intensity (Myo5, Q04439) | SPOT intensity (Pex13, P80667) | SPOT intensity (Cdc25, P04821) | SPOT intensity (GST) | SPOT intensity (Bzz1-2, P38822) | SPOT intensity (Cyk3, Q07533) | SPOT intensity (Hof1, Q05080) | SPOT intensity (Bzz1-1, P38822) | SPOT intensity (Boi1, P38041) | SPOT intensity (Lsb3, P43603) | SPOT intensity (Hse1, P38753) | SPOT intensity (Bbc1, P47068) | SPOT intensity (Rvs167, P39743) | SPOT intensity (Bem1-2, P29366) | SPOT intensity (Pin3, Q06449) | SPOT intensity (Fus1, P11710) | SPOT intensity (Bem1-1, P29366) | further results
1 | B1 | 0 | 0 | 0 | 0 | 45 | 10 | 0 | 1 | 0 | 1600 | 0 | 4 | 0 | 30 | 2 | 2 | 3 | 7 | 0 | 0 | SPOT intensity (Abp1, P15891): 37; SPOT intensity (Nbp2, Q12163): 0; SPOT intensity (Sho1, P40073): 35; SPOT intensity (Lsb1, P53281): 0; SPOT intensity (Boi2, P39969): 0; SPOT intensity (Bud14, P27637): 9; SPOT intensity (Lsb4, P32793): 0
2 | B2 | 149 | 0 | 0 | 93 | 4 | 0 | 0 | 0 | 1 | 0 | 0 | 0 | 0 | 3 | 0 | 0 | 0 | 17 | 1 | 0 | SPOT intensity (Abp1, P15891): 0; SPOT intensity (Nbp2, Q12163): 0; SPOT intensity (Sho1, P40073): 0; SPOT intensity (Lsb1, P53281): 0; SPOT intensity (Boi2, P39969): 0; SPOT intensity (Bud14, P27637): 0; SPOT intensity (Lsb4, P32793): 0
3 | B3 | 431 | 0 | 12 | 298 | 0 | 6 | 0 | 12 | 0 | 2 | 72 | 0 | 0 | 0 | 0 | 0 | 0 | 6 | 0 | 8 | SPOT intensity (Abp1, P15891): 0; SPOT intensity (Nbp2, Q12163): 1; SPOT intensity (Sho1, P40073): 0; SPOT intensity (Lsb1, P53281): 0; SPOT intensity (Boi2, P39969): 0; SPOT intensity (Bud14, P27637): 1; SPOT intensity (Lsb4, P32793): 0
4 | B4 | 371 | 0 | 2 | 227 | 0 | 3 | 0 | 0 | 0 | 0 | 1 | 4 | 0 | 0 | 1 | 0 | 3 | 2 | 0 | 0 | SPOT intensity (Abp1, P15891): 0; SPOT intensity (Nbp2, Q12163): 0; SPOT intensity (Sho1, P40073): 0; SPOT intensity (Lsb1, P53281): 0; SPOT intensity (Boi2, P39969): 1; SPOT intensity (Bud14, P27637): 1; SPOT intensity (Lsb4, P32793): 0
